Measurements as given in publication PMC9064290.

Molecular target: α1-specific anti-SynGAP antibody (06–800)
Assay: western blot of cell lysates, band intensity quantified
Conditions: H293T cells transfected with wild-type or PBM EGFP-SynGAPα1; probed with Pan-SynGAP (D20C7) and α1-specific antibody; n = 4; parent: est. 1.0; read off a plot

Question: With “EGFP-SynGAPα1 T/I; V/E (C-terminal PDZ-binding motif QTRV changed to QIRE)” as the substance, how does the ratio to parent read?
Answer: Its ratio to parent is 0.45.
